Reference: the supplement of paper PMC9170038

Tested on: MS2 coat protein
Assay: apparent KD of MS2 coat protein; designed switch direction (-1 OFF switch, 1 ON switch): -1; higher = weaker reporter binding
Summary of the method: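 SNAP-549-labelled MS2 coat protein was titrated, doubling from 0.7 or 1.5 nM to 3 µM, over designed RNA switches transcribed on Illumina chips by stalled E. coli RNA polymerase. Runs were done without input, with 200 uM small-molecule ligand, or with an oligonucleotide input. Apparent KD is the per-design median over clusters of curve-fitted normalised fluorescence.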

[1] = Eterna round: R95, input ligand: FMN 200 uM
[2] = Eterna round: R95, input ligand: microRNA oligo, concentration not stated
[3] = Eterna round: R95, input ligand: none
[4] = input ligand: microRNA oligo, concentration not stated

## CAAUUCAGAGGAUAUGCGCAUAGAUAAGACUUUUUUUCUUAACAUGAGGAUCACCCAUGUAGAAGGCUGUAACC [Ex2 #63] (Eterna round: R97, puzzle: Exclusion 2)
Input ligand: FMN 200 uM
  apparent KD of MS2 coat protein: 19.8 nM
Input ligand: none
  apparent KD of MS2 coat protein: 18.2 nM

## UCUCCUCCCGUAAGGAUAUUCAUGCGUACCACGCGGAAGAAGGUACAUGAGGAUCACCCAUGUAAUUAACACCG [BmEX4 B.9] (Eterna round: R97, puzzle: Brourd's mod of Exclusion 4)
Input ligand: FMN 200 uM
  apparent KD of MS2 coat protein: 30.7 nM
Input ligand: none
  apparent KD of MS2 coat protein: 24.3 nM

## AUAAAGCAAGCAUGGUCCCACAUGAGGAUCACCCAUGUGUUCGUCUUAUAGGCUGCUGAGGCUUUUGCCUCGGUGGC [LRO Sensor-off var1-07 loose mod of D91 from Mat747] (Eterna round: R97, puzzle: Sensor, turn-off variant 1)
Input ligand: FMN 200 uM
  apparent KD of MS2 coat protein: 155 nM
Input ligand: none
  apparent KD of MS2 coat protein: 179 nM

## ACGAGCAGACGGAGAUCCAACAUGAGGAUCACCCAUGUCUGGAAAGCUUUUUGCUUGUCUUAUCCUCCUCUGUUAGC [Design #10] (Eterna round: R97, puzzle: Sensor, turn-off variant 1)
Input ligand: FMN 200 uM
  apparent KD of MS2 coat protein: 12.4 nM
Input ligand: none
  apparent KD of MS2 coat protein: 11.9 nM

## CUGAGGUAGCGGUCCUAUGACAUGAGGAUCACCCAUGUACCUUGCUUCGAGCUUUUUGCUCGUCUUAUGAUUCUCAG [Mat - Sensor v3 - turn-off var 1 - JL Mod - D32] (puzzle: Sensor v3, turn-off variant 1)
[1]
  apparent KD of MS2 coat protein: 114 nM
[2]
  apparent KD of MS2 coat protein: 405 nM
[3]
  apparent KD of MS2 coat protein: 162 nM

## GAGAAUUUAUAGGAUAUCGUAUGGAUAAUUUAACGAGAAGGAUGAACAUGAGGAUCACCCAUGUGGUAUCAUGG [JL-ex6-3.14] (puzzle: Exclusion 6)
[1]
  apparent KD of MS2 coat protein: 270 nM
[2]
  apparent KD of MS2 coat protein: 280 nM
[3]
  apparent KD of MS2 coat protein: 247 nM

## CUAUUUUUCGCAGGAUAUGCAUCUCCUUUAUUAGCAGAAGGGCGUUAAACAUGAGGAUCACCCAUGUAUUGUGGUGCUUUUUUC [JR_ExcNG1_Sub059] (Eterna round: R96, puzzle: Exclusion NG 1)
Input ligand: FMN 200 uM
  apparent KD of MS2 coat protein: 214 nM
[4]
  apparent KD of MS2 coat protein: 54.3 nM
Input ligand: none
  apparent KD of MS2 coat protein: 57.9 nM

## GCCCAGAGAGGAUAUACAUGAGGAUCACCCAUGUAGAGCUUGUCUGCAGUGAAAGGAUGUAGAAGGCUCGGGCA [Racearza] (Eterna round: R97, puzzle: Exclusion 3)
Input ligand: FMN 200 uM
  apparent KD of MS2 coat protein: 42.6 nM
Input ligand: none
  apparent KD of MS2 coat protein: 26.8 nM

## UACAUGUGAGGAUAUGUACGAAGCCCGGCUGGGCCUCGCAGGCAGAAGGCACAUGAGGAUCACCCAUGUGACCG [Enanvezave] (Eterna round: R96, puzzle: Exclusion 4)
Input ligand: FMN 200 uM
  apparent KD of MS2 coat protein: 82.6 nM
[4]
  apparent KD of MS2 coat protein: 13.1 nM
Input ligand: none
  apparent KD of MS2 coat protein: 17.3 nM

## UUUAUGUCAGGAUAUGAGUAGUAGAACAAUAGUACUACUACUCAGAAGGGACAUGAGGAUCACCCAUGUGCCUC [Fiskers Ex 4 Super stable 44 mod 22] (Eterna round: R96, puzzle: Exclusion 4)
Input ligand: FMN 200 uM
  apparent KD of MS2 coat protein: 326 nM
[4]
  apparent KD of MS2 coat protein: 32.3 nM
Input ligand: none
  apparent KD of MS2 coat protein: 40.4 nM

## UUCCAGACAGGAUAUCUAGUGAGCAACAUGAGGAUCACCCAUGUGACCAUCACCGCCCGCAGAGAAGGGUCAACAG [Inbilaus] (puzzle: Exclusion 5)
[1]
  apparent KD of MS2 coat protein: 55.4 nM
[2]
  apparent KD of MS2 coat protein: 41.1 nM
[3]
  apparent KD of MS2 coat protein: 40.2 nM

## CCGAAACAUGAGGAUCACCCAUGUCAGGAUAUUCCAAAAUCGUCGAAAGACGAUAACAGAAGAAGGGACAUCGG [Fiskxlusion 1 - Jieux - Exclusion 1] (Eterna round: R97, puzzle: Exclusion 1)
Input ligand: FMN 200 uM
  apparent KD of MS2 coat protein: 93.7 nM
Input ligand: none
  apparent KD of MS2 coat protein: 58 nM

## AAAUCGUGAGGAUAUCCAAUAUAUGACAUGAGGAUCACCCAUGUUUCCACUCGUACCUCCGGAGAAGGCACAGUUA [Ex5 #73] (Eterna round: R97, puzzle: Exclusion 5)
Input ligand: FMN 200 uM
  apparent KD of MS2 coat protein: 24.7 nM
Input ligand: none
  apparent KD of MS2 coat protein: 26.3 nM

## UAAAAGGUAGGAUAUACGAAAAAAAAGGGUAGAAAAAAAACACAUGAGGAUCACCCAUGUAGAAGGACCAAAAA [salish99_ex2_r3_049] (puzzle: Exclusion 2)
[1]
  apparent KD of MS2 coat protein: 137 nM
[2]
  apparent KD of MS2 coat protein: 38.4 nM
[3]
  apparent KD of MS2 coat protein: 38 nM

## CGAGGUAGAGGAUAUACGUGGAUGUAAAUUCAUGUUAAUCUACAUGAGGAUCACCCAUGUAGAAGGCUAUAGCG [JR_Ex2_Sub076] (Eterna round: R97, puzzle: Exclusion 2)
Input ligand: FMN 200 uM
  apparent KD of MS2 coat protein: 27.8 nM
Input ligand: none
  apparent KD of MS2 coat protein: 30.6 nM

## CUCGUGUAAGGAUAUGUACCGACACCGCUAAAGCGGCUCCGACAGAAGGUACAUGAGGAUCACCCAUGUACUGC [EX4 B.2] (Eterna round: R97, puzzle: Exclusion 4)
Input ligand: FMN 200 uM
  apparent KD of MS2 coat protein: 25.9 nM
Input ligand: none
  apparent KD of MS2 coat protein: 20.3 nM

## CGCUGUUGAGGAUAUGGGCGUGGGUACAUGAGGAUCACCCAUGUGUUGUCGCGCGUGGGUCUAGAAGGCGGCGGUG [-29.1, -27.2 kcal, 16% A] (Eterna round: R97, puzzle: Exclusion 5)
Input ligand: FMN 200 uM
  apparent KD of MS2 coat protein: 12.1 nM
Input ligand: none
  apparent KD of MS2 coat protein: 13.8 nM

## CUAGGGCGCAUUUAAACGCCCUAACAUGAGGAUCACCCAUGUCAGGAUAUGUAGGCAAAGACCCUACAGAAGGGACAUGUCCUA [Lainceso] (Eterna round: R96, puzzle: Exclusion NG 3)
Input ligand: FMN 200 uM
  apparent KD of MS2 coat protein: 264 nM
[4]
  apparent KD of MS2 coat protein: 57.1 nM
Input ligand: none
  apparent KD of MS2 coat protein: 72.7 nM

## ACUAGGCGAGGAUAUACAUGCUUAACGCAGGAAAAGCUGCGACAUGAGGAUCACCCAUGUAGAAGGCGCAAAUA [Xege] (puzzle: Exclusion 2)
[2]
  apparent KD of MS2 coat protein: 15.4 nM

## UAAUUAAGUGUGAGGAUAUGCUGGUCCUUGGAUCAGCAGAAGGCACAUGAGGAUCACCCAUGUAAUUUAUUUAU [JL bmx4 3.10] (puzzle: Brourd's mod of Exclusion 4)
[2]
  apparent KD of MS2 coat protein: 78.5 nM

## GUAAACGCAGAGGAUAUUUCAGAUCCUAGCUGCAAAGAAGGCUGCACAUGAGGAUCACCCAUGUGGUCCUGAAG [Mat - Exclusion 6 - Eli Mod - D2] (Eterna round: R97, puzzle: Exclusion 6)
Input ligand: FMN 200 uM
  apparent KD of MS2 coat protein: 191 nM
Input ligand: none
  apparent KD of MS2 coat protein: 68.2 nM

## GGAUCUACUGAGGAUAUUACAUCACCCGACUGAUAAGAAGGCAGAACAUGAGGAUCACCCAUGUGGGUAGCCAA [Polaris4] (Eterna round: R97, puzzle: Exclusion 6)
Input ligand: FMN 200 uM
  apparent KD of MS2 coat protein: 25.7 nM
Input ligand: none
  apparent KD of MS2 coat protein: 21.3 nM

## UAACUUCUUGUAAGGAUAUUGGCGCGAAAGCGAACCGAGAAGGUACAUGAGGAUCACCCAUGUGAAAUAAGAAU [Mod of Zala 14 - Jieux - Brourd's Mod of Exclusion 4] (Eterna round: R97, puzzle: Brourd's mod of Exclusion 4)
Input ligand: FMN 200 uM
  apparent KD of MS2 coat protein: 574 nM
Input ligand: none
  apparent KD of MS2 coat protein: 40.3 nM

## GAUGAGGGAGUGAGGAUAUAUACCGGCUCACCGGAGUAGAAGGCACAUGAGGAUCACCCAUGUGACCUUAACCU [Eternabot (L2) Solution 92] (Eterna round: R97, puzzle: Brourd's mod of Exclusion 4)
Input ligand: FMN 200 uM
  apparent KD of MS2 coat protein: 15.3 nM
Input ligand: none
  apparent KD of MS2 coat protein: 14.1 nM

## UGAUCUAGCGGAGGAUAUACAUGAGGAUCACCCAUGUAGUAGUGAGUACCGUAGUGCUCACUUGUGUAGAAGGCCGCUAGAUCU [JL ENG2 3.60] (Eterna round: R96, puzzle: Exclusion NG 2)
Input ligand: FMN 200 uM
  apparent KD of MS2 coat protein: 17.9 nM
[4]
  apparent KD of MS2 coat protein: 9.86 nM
Input ligand: none
  apparent KD of MS2 coat protein: 13.5 nM

## UUUAUGUCAGGAUAUGAGUAGUAGAACAAUAGUACUACUACUCAGAAGGGACAUGAGGAUCACCCAUGUGCCUC [Fiskers Ex 4 Super stable 44 mod 22] (puzzle: Exclusion 4)
[2]
  apparent KD of MS2 coat protein: 33.6 nM

## ACCAAGCUAUGCACGUCUGACAUGAGGAUCACCCAUGUAGCCGGUCUCGGAAGGAGACAGGCUCCAGGUGGCUCAGA [Eternabot (Original) Solution 37] (Eterna round: R97, puzzle: Sensor, turn-off variant 1)
Input ligand: FMN 200 uM
  apparent KD of MS2 coat protein: 683 nM
Input ligand: none
  apparent KD of MS2 coat protein: 667 nM

## CUACUGAAGCUUUGCUUUAGUCGUACAUGAGGAUCACCCAUGUAGGAUAUGGUAGGCUUUGCUUACUAGAAGGAUAGAGUGAUC [salish99_ExNG3_r04_601] (Eterna round: R96, puzzle: Exclusion NG 3)
Input ligand: FMN 200 uM
  apparent KD of MS2 coat protein: 80.9 nM
[4]
  apparent KD of MS2 coat protein: 38.3 nM
Input ligand: none
  apparent KD of MS2 coat protein: 58.1 nM

## UUCUGGACAGGAUAUGUACUUGAGCACUUGAGGAUCACCCAAGUCUUCAAGUACUCAGGCACAGAAGGGUUAAUUU [jl-ex5.4.66 ViennaUCT mod] (Eterna round: R97, puzzle: Exclusion 5)
Input ligand: FMN 200 uM
  apparent KD of MS2 coat protein: 58.9 nM
Input ligand: none
  apparent KD of MS2 coat protein: 25.4 nM

## CCUAGUUGGUAAGGAUAUCCUACACUGUUCUGACCCGUGCAAGCUACAUGAGGAUCACCCAUGUGGGAGAAGGUGCGUCAACGC [Design 12] (Eterna round: R96, puzzle: Exclusion NG 2)
Input ligand: FMN 200 uM
  apparent KD of MS2 coat protein: 29 nM
[4]
  apparent KD of MS2 coat protein: 25.3 nM
Input ligand: none
  apparent KD of MS2 coat protein: 29.2 nM

## UGGGUUCUCCAUGGAAGUAACAUGAGGAUCACCCAUGUAGGGCAAGUUUUUUGCUCGUCAUAGGCCGUGGGUUUGGA [JR_SV3TOV1_Sub019] (puzzle: Sensor v3, turn-off variant 1)
[1]
  apparent KD of MS2 coat protein: 252 nM
[2]
  apparent KD of MS2 coat protein: 248 nM
[3]
  apparent KD of MS2 coat protein: 305 nM

## UAUCUUCAUAUCACAUGAGGAUCACCCAUGUUAUUCAUCUCGUAGGAUAUCGAGGUUUUUUUUUUCGAGAAGGACGUAUUGUUU [JR_ExcNG3_Sub078] (Eterna round: R96, puzzle: Exclusion NG 3)
Input ligand: FMN 200 uM
  apparent KD of MS2 coat protein: 183 nM
[4]
  apparent KD of MS2 coat protein: 159 nM
Input ligand: none
  apparent KD of MS2 coat protein: 180 nM

## CUAUUCCGAGGAUAUACAUGAGGAUCACCCAUGUCGGGCCUCUGCGUUUAGCGCGUAAGUAGAAGGUGGGUUUC [JL Riri mod 8] (puzzle: Exclusion 3)
[2]
  apparent KD of MS2 coat protein: 27.1 nM
